Data on two molecules can be found in US20150023979A1 (VALDOSPAN, published 2015).

The target of experiment [1] is T1, HPV38 E7 protein (beta-papillomavirus), recombinant (His-TEV-E7 fusion from E. coli) (Human Papilloma Virus type 38 (HPV38), UniProt Q80908 1-100).
T1 construct: mature; also called HPVE7 38; VE7_HPV38; not shown: N-terminal 6x Histidine tag and TEV cleavage site of the vector
T1 sequence: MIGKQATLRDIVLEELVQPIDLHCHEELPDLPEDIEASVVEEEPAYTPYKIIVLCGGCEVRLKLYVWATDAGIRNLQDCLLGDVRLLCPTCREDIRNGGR
Nature of the experiment: ELISA and dot-blot. Background: ELISA stands for enzyme-linked immunosorbent assay.

Experiment [2] deals with T2, HPV5 E7 protein (beta-papillomavirus), recombinant (His-TEV-E7 fusion from E. coli) (Human Papilloma Virus type 5 (HPV5), UniProt P06932 1-103).
T2 construct: mature; also called VE7_HPV05; not shown: N-terminal 6x Histidine tag and TEV cleavage site of the vector
T2 sequence: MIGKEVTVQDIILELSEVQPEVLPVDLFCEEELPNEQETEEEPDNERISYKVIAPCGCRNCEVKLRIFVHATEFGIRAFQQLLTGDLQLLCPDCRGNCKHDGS
Nature of the experiment: ELISA and dot-blot.

Experiment [3] deals with T3, HPV6 E7 protein (low risk type), recombinant (His-TEV-E7 fusion from E. coli) (Human Papilloma Virus type 6 (HPV6), UniProt Q84292 1-98).
T3 construct: mature; the only HPV6 entry in the list of constructs is VE7_HPV6A; also called VE7_HPV6A; not shown: N-terminal 6x Histidine tag and TEV cleavage site of the vector
T3 sequence: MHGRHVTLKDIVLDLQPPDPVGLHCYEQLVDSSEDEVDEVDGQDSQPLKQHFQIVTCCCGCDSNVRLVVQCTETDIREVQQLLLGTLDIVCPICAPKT
Nature of the experiment: ELISA and dot-blot.

The target of experiment [4] is T4, HPV11 E7 protein (low risk type), recombinant (His-TEV-E7 fusion from E. coli) (Human Papilloma Virus type 11 (HPV11), UniProt P04020 1-98).
T4 construct: mature; also called VE7_HPV11; not shown: N-terminal 6x Histidine tag and TEV cleavage site of the vector
T4 sequence: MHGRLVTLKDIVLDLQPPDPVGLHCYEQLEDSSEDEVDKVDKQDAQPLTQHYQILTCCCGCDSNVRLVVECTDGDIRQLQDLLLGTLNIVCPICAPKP
The experiment is described as follows: ELISA and dot-blot.

The target in experiment [5] is T5, HPV35 E7 protein, recombinant (His-TEV-E7 fusion from E. coli) (Human Papilloma Virus type 35 (HPV35), UniProt P27230 1-99, CKII phosphorylation of the consensus site serines in the antigen preparation of Example 2).
T5 construct: mature; also called VE7_HPV35; not shown: N-terminal 6x Histidine tag and TEV cleavage site of the vector
T5 sequence: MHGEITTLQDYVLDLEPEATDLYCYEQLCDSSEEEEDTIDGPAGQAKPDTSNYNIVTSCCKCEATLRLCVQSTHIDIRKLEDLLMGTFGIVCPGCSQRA
Nature of the experiment: ELISA and dot-blot, semiquantitative crossreactivity.

Experiment [6] deals with T6, HPV45 E7 protein, recombinant (His-TEV-E7 fusion from E. coli) (Human Papilloma Virus type 45 (HPV45), UniProt P21736 1-106, CKII phosphorylation of the consensus site serines in the antigen preparation of Example 2; biotin on primary amines in the SPR assay).
T6 construct: mature; also called VE7_HPV45; not shown: N-terminal 6x Histidine tag and TEV cleavage site of the vector
T6 sequence: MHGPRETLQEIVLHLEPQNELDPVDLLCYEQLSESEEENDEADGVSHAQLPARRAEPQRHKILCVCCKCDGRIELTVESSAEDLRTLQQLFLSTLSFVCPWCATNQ
The description is as above.

Experiment [7] has as its target T7, HPV51 E7 protein, recombinant (His-TEV-E7 fusion from E. coli) (Human Papilloma Virus type 51 (HPV51), UniProt P26558 1-101, CKII phosphorylation of the consensus site serines in the antigen preparation of Example 2).
T7 construct: mature; also called VE7_HPV51; not shown: N-terminal 6x Histidine tag and TEV cleavage site of the vector
T7 sequence: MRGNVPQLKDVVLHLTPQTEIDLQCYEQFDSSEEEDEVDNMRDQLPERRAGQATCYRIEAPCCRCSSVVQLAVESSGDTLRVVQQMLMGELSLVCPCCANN
Described as above.

Experiment [8] concerns the target T8, HPV56 E7 protein, recombinant (His-TEV-E7 fusion from E. coli) (Human Papilloma Virus type 56 (HPV56), UniProt P36833 1-105, CKII phosphorylation of the consensus site serines in the antigen preparation of Example 2).
T8 construct: mature; also called VE7_HPV56; not shown: N-terminal 6x Histidine tag and TEV cleavage site of the vector
T8 sequence: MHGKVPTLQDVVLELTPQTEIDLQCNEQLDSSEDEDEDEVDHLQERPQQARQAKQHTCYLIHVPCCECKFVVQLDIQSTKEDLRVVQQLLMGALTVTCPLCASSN
The description is as above.

Experiment [9] addresses T9, HPV18 E7 protein, recombinant (His-TEV-E7 fusion from E. coli) (Human Papilloma Virus type 18 (HPV18), UniProt P06788 1-105, CKII phosphorylation of the consensus site serines in the antigen preparation of Example 2; biotin on primary amines in the SPR assay).
T9 construct: mature; also called VE7_HPV18; not shown: N-terminal 6x Histidine tag and TEV cleavage site of the vector
T9 sequence: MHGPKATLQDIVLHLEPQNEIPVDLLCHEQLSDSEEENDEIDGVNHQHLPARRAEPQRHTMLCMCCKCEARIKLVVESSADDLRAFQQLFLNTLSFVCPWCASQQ
Described as above.

The target in experiment [10] is T10, HPV33 E7 protein, recombinant (His-TEV-E7 fusion from E. coli) (Human Papilloma Virus type 33 (HPV33), UniProt P06429 1-97, CKII phosphorylation of the consensus site serines in the antigen preparation of Example 2; biotin on primary amines in the SPR assay).
T10 construct: mature; also called VE7_HPV33; not shown: N-terminal 6x Histidine tag and TEV cleavage site of the vector
T10 sequence: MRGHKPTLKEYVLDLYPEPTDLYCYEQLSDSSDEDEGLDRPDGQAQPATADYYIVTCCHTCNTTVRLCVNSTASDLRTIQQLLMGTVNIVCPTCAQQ
Nature of the experiment: ELISA and dot-blot, semiquantitative crossreactivity (++ strong positive).

Experiment [11] concerns the target T11, HPV52 E7 protein, recombinant (His-TEV-E7 fusion from E. coli) (Human Papilloma Virus type 52 (HPV52), UniProt P36831 1-99, CKII phosphorylation of the consensus site serines in the antigen preparation of Example 2).
T11 construct: mature; also called VE7_HPV52; not shown: N-terminal 6x Histidine tag and TEV cleavage site of the vector
T11 sequence: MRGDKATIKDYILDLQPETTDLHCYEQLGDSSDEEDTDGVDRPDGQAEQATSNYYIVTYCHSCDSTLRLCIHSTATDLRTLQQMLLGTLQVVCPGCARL
The experiment is described as above.

For experiment [12], the target named is T12, HPV58 E7 protein, recombinant (His-TEV-E7 fusion from E. coli) (Human Papilloma Virus type 58 (HPV58), UniProt P26557 1-98, CKII phosphorylation of the consensus site serines in the antigen preparation of Example 2).
T12 construct: mature; also called VE7_HPV58; not shown: N-terminal 6x Histidine tag and TEV cleavage site of the vector
T12 sequence: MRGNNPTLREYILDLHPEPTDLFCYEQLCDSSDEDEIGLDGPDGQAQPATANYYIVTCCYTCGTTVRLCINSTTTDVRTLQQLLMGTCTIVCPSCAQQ
Described as above.

Experiment [13] has as its target T13, HPV31 E7 protein, recombinant (His-TEV-E7 fusion from E. coli) (Human Papilloma Virus type 31 (HPV31), UniProt P17387 1-98, CKII phosphorylation of the consensus site serines in the antigen preparation of Example 2).
T13 construct: mature; also called VE7_HPV31; not shown: N-terminal 6x Histidine tag and TEV cleavage site of the vector
T13 sequence: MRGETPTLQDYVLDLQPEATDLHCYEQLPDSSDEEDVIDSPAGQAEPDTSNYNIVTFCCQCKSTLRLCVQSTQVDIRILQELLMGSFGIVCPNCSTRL
The experiment is described as above.

The target of experiment [14] is T6, HPV45 E7 protein, recombinant …. Nature of the experiment: ELISA and dot-blot, semiquantitative crossreactivity; antigens denatured for this antibody.
For experiment [15], the target named is T7, HPV51 E7 protein, recombinant …. The experiment is described as above.
The target in experiment [16] is T8, HPV56 E7 protein, recombinant …. The experiment is described as above.
Experiment [17] concerns the target T9, HPV18 E7 protein, recombinant …. Described as above.
The target in experiment [18] is T5, HPV35 E7 protein, recombinant …. Nature of the experiment: ELISA and dot-blot, semiquantitative crossreactivity (++ strong positive); antigens denatured for this antibody.
The target in experiment [19] is T11, HPV52 E7 protein, recombinant …. Described as above.
The target of experiment [20] is T12, HPV58 E7 protein, recombinant …. Described as above.

B1: ACAB167 (antibody, V domains shown)
VH: EVQLEESGGGLVQPKGSLKLSCTASGFPFNTYAMNWVRQAPGKGLEWVARIRTKSNNYATYYADSVKDRFTISRDDSQNMLYLQMNNLKTEDTAMYYCVRLYGYYFDYWGQGTTLTVSS
VL: DIVMTQSPEIMSASPGEKVTMTCSASSSVSFMFWYQQKSGTSPKIWIYDTSKLASGVPARFSGSGSGTSYSLTVSSMEAEDAATYYCQQWNSNPPTFGVGTKLELKR
notes: the printed entries run on into the first residues of the constant domains; also called HPV16E7 IgG2b antibody ACAB167
With B1, the binding result in experiment [1], in [2], in experiment [3], in [4], in experiment [5] and in [6] was “no binding” each time. The binding result was “no binding” in experiment [7]; “no binding” in experiment [8]; “no binding” in experiment [9]; “binds” in [10]; “binds” in experiment [11]; “binds” in experiment [12]. For the same molecule, the binding result in experiment [13] is listed as “binds”.

B2: ACAB337 (antibody, IgG1, V domains shown)
VH: DVQLQESGPGLVKPSQSLSLTCTVTGHSITSDYAWNWIRQFPGNKLEWVAYISYSGGTGYNPSLKSRISITRDTSKPNQFFLQLNSVTTEDTATYYCACGDYYYGPRDYWGQGTSVTVSS
VL: DILLTQSPAILSVSPGERVSFSCRASQSIGTSIHWYQQRTNGSPRLLIKYASESISGIPSRFSGSGSGTDFTLSINSVESEDIADYYCQQSNYWPFTFGSGTKLEIKR
notes: also called HPV33E7 IgG1 antibody ACAB337
On to B2, for which the binding result in experiment [1], in experiment [2], in experiment [3], in experiment [4], in experiment [14] and in experiment [15] was “no binding” in each case. The binding result in experiment [16] is on record as “no binding”; in experiment [17] it was “no binding”; in [18] it was “binds”; in experiment [19], “binds”; in experiment [20], “binds”.
